Results on 50 sequences are retold here after the supplement of paper PMC9112550, “Optimization of the antimicrobial peptide Bac7 by deep mutational scanning” (BMC Biology, 2022).

The data set has as its system Escherichia coli TOP10. In words: shrunken log2 fold change of peptide-encoding DNA abundance (4.5 h post-induction vs induction); higher = less antimicrobial activity (less host growth inhibition). Conditions: time post-induction: 4.5 h; library: site-saturation at positions 5, 18, 19, 20.
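Note: peptides expressed intracellularly from a pBAD plasmid library in pooled LB shake-flask culture, induced with 0.3% L-arabinose, DNA abundance read by NGS, three biological replicates, DESeq2 with apeglm shrinkage.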

Consider RRIRGRPPRLPRPRPRPMQGPRP, for which the “shrunken log2 fold change” value came to 0.0711.
Take RRIRVRPPRLPRPRPRPVSRPRP: the “shrunken log2 fold change” value stood at 0.37.
For RRIRSRPPRLPRPRPRPDRKPRP, the “shrunken log2 fold change” value is -0.0693.
The same measure for RRIRDRPPRLPRPRPRPCCNPRP: 0.255.
The same measure for RRIRLRPPRLPRPRPRPMNDPRP: -0.219.
Regarding RRIRCRPPRLPRPRPRPHAFPRP, the “shrunken log2 fold change” value was -0.647.
The same measure for RRIRFRPPRLPRPRPRPLNSPRP: -0.377; for RRIRGRPPRLPRPRPRPNLKPRP: 0.189.
The same measure for RRIRVRPPRLPRPRPRPCHHPRP: -0.00671; for RRIRARPPRLPRPRPRPCFEPRP: 0.438; for RRIRARPPRLPRPRPRPAFDPRP: 1.
For the sequence RRIRQRPPRLPRPRPRPWITPRP, the “shrunken log2 fold change” value was -0.0754.
The same measure for RRIRIRPPRLPRPRPRPKQSPRP: -0.384; for RRIRGRPPRLPRPRPRPHGVPRP: 0.00437; for RRIRCRPPRLPRPRPRPHQSPRP: -0.0603.
The same measure for RRIRNRPPRLPRPRPRPNEKPRP: -0.00172.
The same measure for RRIRLRPPRLPRPRPRPYRSPRP: -0.0017; for RRIRVRPPRLPRPRPRPLYDPRP: -0.257.
For RRIRVRPPRLPRPRPRPQAMPRP, the “shrunken log2 fold change” value is -0.00096.
The same measure for RRIRRRPPRLPRPRPRPHIQPRP: -0.114; for RRIRFRPPRLPRPRPRPGLDPRP: -0.0186; for RRIRQRPPRLPRPRPRPRTTPRP: 0.218.
Regarding RRIRSRPPRLPRPRPRPTQRPRP, the “shrunken log2 fold change” value came out at 0.547.
The same measure for RRIRQRPPRLPRPRPRPPQFPRP: 0.076; for RRIRCRPPRLPRPRPRPYGEPRP: -0.432; for RRIRGRPPRLPRPRPRPKIWPRP: 0.64.
As for RRIRNRPPRLPRPRPRPTALPRP, the “shrunken log2 fold change” value was -0.18.
Consider RRIRMRPPRLPRPRPRPFILPRP, for which the “shrunken log2 fold change” value is -0.41.
The same measure for RRIRDRPPRLPRPRPRPESGPRP: 0.778.
The same measure for RRIRHRPPRLPRPRPRPMTHPRP: -0.235; for RRIRFRPPRLPRPRPRPYCAPRP: -0.517; for RRIRNRPPRLPRPRPRPCQWPRP: 0.0401.
The same measure for RRIRHRPPRLPRPRPRPTESPRP: 0.0139; for RRIRVRPPRLPRPRPRPGQYPRP: -0.113.
RRIRQRPPRLPRPRPRPLVIPRP: the “shrunken log2 fold change” value is -0.682.
The same measure for RRIRCRPPRLPRPRPRPVPCPRP: 0.177; for RRIRYRPPRLPRPRPRPKQIPRP: -0.456; for RRIRDRPPRLPRPRPRPNIEPRP: -0.00164.
Consider RRIRKRPPRLPRPRPRPQQVPRP, for which the “shrunken log2 fold change” value is -0.0532.
RRIRVRPPRLPRPRPRPHTYPRP: the “shrunken log2 fold change” value was -0.154.
On to RRIRPRPPRLPRPRPRPWFTPRP, for which the “shrunken log2 fold change” value is -0.0465.
The same measure for RRIRMRPPRLPRPRPRPSTRPRP: 0.406; for RRIRRRPPRLPRPRPRPVCWPRP: 0.586.
The same measure for RRIRSRPPRLPRPRPRPWGNPRP: -0.236.
The same measure for RRIRWRPPRLPRPRPRPNKEPRP: -0.0697; for RRIRYRPPRLPRPRPRPVVLPRP: -0.397.
Consider RRIRYRPPRLPRPRPRPSHTPRP, for which the “shrunken log2 fold change” value is -1.39.
The same measure for RRIRMRPPRLPRPRPRPHYCPRP: -0.116; for RRIRGRPPRLPRPRPRPCRRPRP: 0.117; for RRIRWRPPRLPRPRPRPNHIPRP: -0.569.
